No end group written: not given here.
Key:
[1] = molecular target: purified recombinant CBP KIX domain (Homo sapiens (Human)) (UniProt Q92793); assay: microscale thermophoresis (MST), FITC-peptide fixed, purified KIX titrated, n=3
[2] = molecular target: purified recombinant CBP KIX domain (Homo sapiens (Human)) (UniProt Q92793); assay: microscale thermophoresis (MST), FITC-peptide at fixed concentration, purified KIX titrated; concentration read is that of KIX
[3] = molecular target: T1, purified recombinant CBP KIX domain (Homo sapiens (Human), UniProt Q92793 587-666); assay: microscale thermophoresis (MST), FITC-peptide fixed, purified KIX titrated, n=3
T1 construct: Linker residues may remain after the thrombin cut; also called purified KIX

[4] = molecular target: T1, purified recombinant CBP KIX domain; assay: microscale thermophoresis (MST), FITC-peptide at fixed concentration, purified KIX titrated; concentration read is that of KIX
[5] = molecular target: T1, purified recombinant CBP KIX domain; assay: microscale thermophoresis (MST), FITC-peptide at fixed concentration, purified KIX titrated

T1 sequence (Q92793 587-666 limits assumed): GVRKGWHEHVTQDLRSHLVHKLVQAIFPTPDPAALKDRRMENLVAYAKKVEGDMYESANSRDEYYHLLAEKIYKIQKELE
Sequence of purified recombinant CBP KIX domain (Homo sapiens (Human)) (Q92793 587-666 limits assumed): as above

“FITC-MYBMIM (FITC-conjugated D-amino acid retro-inverso peptide, D-aa)” gave a Kd [1] of 25.4 µM and an EC50 (read off the curve) [2] of 30 µM.

B1: FITC-MYB (FITC-conjugated L-amino acid peptide, L-aa) (peptide)
peptide: YGRKKRRQRRRGGKRIKELELLLMSTENELK-NH2
modifications: not fully specified (N-terminus); also: conjugated to FITC, site not given here, N-terminal acetyl
notes: It is uncertain whether the labelled peptide carried the TAT part; also called L-aa peptide
B1 was tested, and the Kd [3] was 5.25 µM and the “EC50 (read off the curve)” value [4] was roughly 5 µM.

B2: FITC-TAT (fluorescein-conjugated TAT peptide, FITC-AHA-YGRKKRRQRRR-NH2) (peptide)
peptide: YGRKKRRQRRR
modifications: not fully specified; N-terminal FITC-aminohexanoic acid (FITC-AHA); C-terminal amide; L-amino acids
B2: no binding (tested: about 50 uM KIX) [5].
